Source: PMC9083366, “Brassinosteroid-Insensitive 1-Associated Receptor Kinase 1 Modulates Abscisic Acid Signaling by Inducing PYR1 Monomerization and Association With ABI1 in Arabidopsis” (Frontiers in Plant Science, 2022)
Changes are numbered by the printed parent chain.

T1: GST-ABI1 (Arabidopsis thaliana, UniProt P49597 1-434)
T1 construct: ABI1 (ABA-Insensitive 1), clade A protein phosphatase 2C, Arabidopsis thaliana; also called ABA-Insensitive 1; not shown: GST, N-terminal, kept
T1 sequence (looked up): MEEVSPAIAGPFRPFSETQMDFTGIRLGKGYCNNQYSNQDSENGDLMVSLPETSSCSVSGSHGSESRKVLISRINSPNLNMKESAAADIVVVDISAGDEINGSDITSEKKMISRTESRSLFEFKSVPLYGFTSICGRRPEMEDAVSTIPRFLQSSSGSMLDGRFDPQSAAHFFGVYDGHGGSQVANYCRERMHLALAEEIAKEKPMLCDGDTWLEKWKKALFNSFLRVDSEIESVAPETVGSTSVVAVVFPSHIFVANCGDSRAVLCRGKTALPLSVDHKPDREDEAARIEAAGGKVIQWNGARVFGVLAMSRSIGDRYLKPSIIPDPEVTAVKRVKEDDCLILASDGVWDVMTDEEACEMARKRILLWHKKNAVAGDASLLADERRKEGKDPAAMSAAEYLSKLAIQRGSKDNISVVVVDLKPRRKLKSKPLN

B1: HIS-tagged PYR1 recombinant protein (natural protein, Arabidopsis thaliana, UniProt O49686 1-191, looked up)
chain: MPSELTPEERSELKNSIAEFHTYQLDPGSCSSLHAQRIHAPPELVWSIVRRFDKPQTYKHFIKSCSVEQNFEMRVGCTRDVIVISGLPANTSTERLDILDDERRVTGFSIIGGEHRLTNYKSVTTVHRFEKENRIWTVVLESYVVDMPEGNSEDDTRMFADTVVKLNLQKLATVAEAMARNSGDGSGSQVT
notes: PYR1 (PYRABACTIN …1), Arabidopsis thaliana, 191 amino acids; also called HIS-PYR1; PYRABACTIN …1; not shown: His, N-terminal, kept
B2: HIS-PYR1DD (phosphomimetic PYR1) (natural protein, Arabidopsis thaliana, UniProt O49686 1-191, looked up)
chain: B1 chain with T137D, S142D
notes: PYR1, Arabidopsis thaliana, 191 amino acids, T137 and S142 mutagenized to aspartic acid; not shown: His, N-terminal, kept

Biological target: T1, GST-ABI1
Test: pull-down; GST-ABI1 incubated with HIS-PYR1 variants in the absence or presence of 30 uM ABA; western blot with anti-GST and anti-HIS
Settings: both partners purified

Binder	binding result
B1	binds
B2	binds
